Laboratory results as given in patent US9388406B2, “System useful for reporting protein-protein interactions in the bacterial periplasm” (Cornell University, priority 2008, dated 2016).

Legend:
[1] = test system: scFv-GCN4; assay: split β-lactamase protein complementation assay in the periplasm, MBC on ampicillin, scFv-GCN4 with antigen; type: cell-based; details: E. coli MC4100; antigen on α Bla fragment paired with scFv-GCN4; versus α-Jun negative control
Procedure: (§1) E. coli MC4100 cells were co-transformed with plasmids pDMB-P1-ωBLA (CmR) and aGS-P2 (KanR), where P1 and P2 represent proteins of interest. Cells were grown overnight at 37° C. in LB medium containing 20 μg/mL chloramphenicol (Cm) and 50 μg/mL kanamycin (Kan). Screening of cells on LB agar was performed by first normalizing overnight cultures by OD600 and then spotting 5 μL, of serially diluted (10-10^6-fold) cells on LB agar plates with […] of ampicillin (Amp). In all cases, the plates were incubated 16 h at 37° C. and then imaged using a ChemiDoc System (BioRad). […] The minimum bacteriocidal concentration was determined as the minimum Amp concentration at which no colonies appeared on the plates.
(§2) It was hypothesized that detecting protein interactions in the periplasm can be used to engineer antibody fragments with in vivo activity in the periplasm. […] The approach used in the present invention was to fuse known interacting protein domains to genes encoding two split β-lactamase fragments using a two-plasmid system (Wehrman, T., et al., “Protein-protein Interactions Monitored in Mammalian Cells Via Complementation of Beta-lactamase Enzyme Fragments,” Proc Natl Acad Sci USA 99:3469-3474 (2002), which is hereby incorporated by reference in its entirety)(see FIG. 2A). […]

[2] = target: T1, Jun (Homo sapiens, UniProt P05412); details: Fos/Jun leucine zippers; Pernelle et al. 1993; cited from earlier work
T1 sequence (P05412 280-308 limits assumed, species assumed): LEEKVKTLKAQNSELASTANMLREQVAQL

[3] = target: T1, Jun; assay: split β-lactamase protein complementation assay in the periplasm, spot plating on ampicillin, Fos/Jun leucine zippers; type: cell-based; details: Fos on ω fragment, Jun on α fragment of Bla; negative control GCN4
Procedure: as §1, §2

Row | Molecule | higher MBC (minimum bacteriocidal concentration) on ampicillin [1] [fold] | KD of their interaction [2] | ampicillin activity in the PCA [3]
1 | GCN4-PP: double proline mutant of the GCN4 leucine zipper with reduced homodimerization, antigen of scFv-GCN4 (protein, left off: small tags and cut ends) HPETLVKVKDAEDQLGARVGYIELDLNSGKILESFRPEERFPMMSTFKVLLCGAVLSRVDAGQEQLGRRIHYSQNDLVEYSPVTEKHLTDGMTVRELCSAAITMSDNTAANLLLTTIGGPKELTAFLHNMGDHVTRLDRWEPELNEAIPNDERDTTMPAAMATTLRKLLTGELLEPKVEELLPKNYHLENEVARL | 16 | – | –
2 | Fos: Fos leucine zipper, fused to the ω fragment of β-lactamase; interacts with Jun (protein) LQAETDQLEDEKSALQTEIANLLKEKEKLGGGGSGGGGSGGGGSNGRTLASRQQLIDWMEADKVAGPLLRSALPAGWFIADKSGAGERGSRGIIAALGPDGKPSRIVVIYTTGSQATMDERNRQIAEIGASLIKHW | – | nanomolar range | well above that of the negative control
